± gives the uncertainty stated by the source.

Here are results for 142 substances from the supplement of paper PMC12042874.

The series is described as follows: amyloid nucleation score (Sup35N fusion, yeast selection) (log enrichment); library NNK1; higher = more nucleation; inactive = no reads after selection. Put shortly:
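On medium lacking adenine and uracil, psi-negative yeast expressing peptides of 20 random codons fused to Sup35N were grown 7 days at 30°C after a 24-hour induction with 100 μM copper sulfate. Illumina sequencing of input and output plasmid inserts gave the reads, and sequences under 100 input reads were excluded. The nucleation score is the DiMSum log enrichment of output over input reads, centred on the mode score of non-aggregating sequences.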

For the substance GDGVGFVLITHWDVVDDMGC, the amyloid nucleation score was 0.724 ± 0.93.

With LRDRCTFG, the amyloid nucleation score is -0.755 ± 0.5. To KREFQCWTSACFFDISSAEL belongs 0.34 ± 0.79; to SSRDGTIRRGWIWVDVRVKS, 0.142 ± 0.48. As for RSEELYGQDVQEKSAGPRVS, the amyloid nucleation score was -0.089 ± 1.2.

Consider LRSFIGRRS, for which the amyloid nucleation score came to 0.272 ± 0.32. To GLSTMQCVNICFWSYVTW belongs 1.37 ± 0.26; to VAPVEYICELTLWA, -1.22 ± 2.7; to VRRGTVFAVGTCYIGRWFAV, 1.21 ± 0.97. Consider HVMRSSGRHGRRRLT, for which the amyloid nucleation score is -0.631 ± 1.1. With TIWVEKLWDIYI the entry was “inactive”. In the case of SSMILSNGVFNCQMGFLACK, the amyloid nucleation score is 0.461 ± 0.43. With WNQIAYNYRMLMLYFVTHYW the figure was 0.327 ± 0.5. To DVYVACTSFDLELCICVMRL belongs 0.237 ± 0.7; to ALLPKFCDIKFVVEKNGENR, 0.181 ± 1.4.

Turning to SSPDFMFYILNRALA, the amyloid nucleation score is -0.526 ± 1.4. With ILTRRSLLRLWIIISDKSFR the figure was -0.695 ± 1.4; with LFVTCPHLSTQ, 1.26 ± 0.69.

With GYWGPVFSGRCIPVNNK, the amyloid nucleation score was -0.186 ± 1.5. In the case of LYIFGAY, the amyloid nucleation score is -1.26 ± 0.53. Consider WRLRCLRELV, for which the amyloid nucleation score was -0.542 ± 0.65.

As to VQISQETFYNWLFVPAVSVP, the amyloid nucleation score is -0.282 ± 0.38.

LMVGVSRGSGWRCGPLGEGA yielded an amyloid nucleation score of 0.035 ± 0.37. In the case of GNYTS, the amyloid nucleation score was -0.894 ± 0.59. To AFLKLSTRWWKPVIFYKCDL belongs -0.932 ± 1.1; to SILMIMMTLSSVQRLMLTGS, -0.161 ± 0.71.

Consider LREVGQNLVGMSV, for which the amyloid nucleation score result is “inactive”.

For VTVLSSVLIL, the amyloid nucleation score stood at 0.332 ± 0.27.

SCYDVIVRWDFFLQQFCKMQ registered an amyloid nucleation score of 1.73 ± 0.12.

With AGVAPYWVPTSEQDQLRRGT, the amyloid nucleation score was -0.721 ± 1.9.

YMLSLSPPRRC returned an amyloid nucleation score of 0.25 ± 0.33. With IECLLDRILDTLYVRLNFIG the figure was 0.616 ± 0.79; with ISICTMLLFSPVS, -0.894 ± 0.83. Substance GPSLGVIFKEIWFYYG came in with an amyloid nucleation score of 0.541 ± 0.3.

For RRGRLYSKLCLCRF, the amyloid nucleation score was 0.874 ± 0.92. On to TYQTVSKKSEFIMPFGLCSN, for which the amyloid nucleation score is -0.011 ± 0.17. With ICSNGLLIMNVE the figure was 1.13 ± 0.97; with WVVIR, -0.369 ± 1.5. Turning to YWGARNCLLYWWYGLTTEGS, the amyloid nucleation score worked out at 0.028 ± 0.44. With WRGGKRHVAIFSISYSGTN the figure was 0.9 ± 0.57; with PSLASCSRL, 0.28 ± 0.41. To PSPQWYGDDNVTSRWRLLAV belongs 0.548 ± 0.28; to YLDGTNSMNAEGNLLNKAPV, 0.189 ± 0.31; to IDHSTRVNPGEPLQVLRGGL, 4.29 ± 0.088. As to LVYILMLYWVYGQIGNFSLV, the amyloid nucleation score is -0.955 ± 0.9. The substance QQSFVTSLVMYVDRYRFVQV gave an amyloid nucleation score of 0.809 ± 0.85. With YNVMYTFLHFAIGTAISRTW the figure was -0.798 ± 0.76. To DATCLESLALSYKG belongs -0.573 ± 0.41.

On to QSFSSSMHHDHDNWDQCCES, for which the amyloid nucleation score stood at 0.522 ± 0.59. To HYRSTGMMESSRG belongs 0.522 ± 0.6; to IPNISGYPHICMESGGSLVC, 0.004 ± 0.61. Consider PGSIYMSPGCGYIQAVRDHI, for which the amyloid nucleation score was -0.205 ± 0.35. With SKSYLVFDNISRRH the figure was -1.11 ± 0.7; with EYGLVRTLPVFRRVRRKYVG, -0.666 ± 0.67; with LTLMGRSMNKYVAGSTTRAL, -0.371 ± 0.29. With MVDSYWGWCAMK the figure was 1.22 ± 0.61; with NDRKYLCMMRILMSNRRVLQ, 0.553 ± 0.3. For the substance VSRNIWYRWGNLLAVVKM, the amyloid nucleation score is -0.025 ± 0.57. On to FCAEEGVTRLNPKL, for which the amyloid nucleation score was -0.023 ± 0.47.

FLAYLPSEKC: the amyloid nucleation score is -0.267 ± 0.44. The substance LSCLYDDCC returned an amyloid nucleation score of 1.05 ± 0.61. To TDYIHLSIMIDFLGFTFQDR belongs 1.46 ± 0.43; to VIQRTYCGRVLNLHALI, 0.245 ± 0.57.

Substance AGDLGPREQGR gave an amyloid nucleation score of 0.171 ± 1.2. To GYPWVV belongs 0.993 ± 0.55.

As for HNLDCKRVGSARTWIEWWVG, the amyloid nucleation score was 0.07 ± 0.3. In turn, RLLSLLINMTVVVWLSRKT came in with an amyloid nucleation score of 2.43 ± 0.25. To LLVVIQICLM belongs 2.9 ± 0.14. On to NSLCSP, for which the amyloid nucleation score was -1.31 ± 1.9. RLFRTLGSDRGLFKEYF yielded an amyloid nucleation score of 0.734 ± 0.84. With TTALFWSRRPSFGDLYRGFN the figure was 3.86 ± 0.082; with KYVSYQGQVDCSCKSVL, -0.182 ± 0.45; with HAAEGIDESRKHSRHLIIVW, 0.029 ± 0.34. To RSFVLLGFPSY belongs -0.882 ± 0.66. To VNVFRNLFVTTDLWLSSTQN belongs -0.437 ± 0.66; to VILFYSR, 4.49 ± 0.11; to PWYTRLRRK, -0.338 ± 1.4. Consider QLRNLFHFYTGITDSRFLLH, for which the amyloid nucleation score was 1.93 ± 0.52. As for YKLKFIRGACHSS, the amyloid nucleation score was determined as 0.9 ± 0.63. As for SAGSVADRGCLFSLRRASKC, the amyloid nucleation score was 0.851 ± 0.78.

For LLYFRVRSMFKGLRNETYMA, the amyloid nucleation score worked out at 0.411 ± 0.27.

For the substance GGSDFWIGN, the amyloid nucleation score came out at 0.277 ± 0.48. With LVMLRCAMTLCSIMLNYTPR the figure was 0.89 ± 0.39. As for WVTVPNTKKTNVLFGQWTIV, the amyloid nucleation score is -0.379 ± 0.39. Take ALCYPLMDSRSSRSYVQTRR: the amyloid nucleation score was found to be 2.61 ± 0.12. As to QVLSHSKHNIVLDYHLETCG, the amyloid nucleation score came out at 1.84 ± 0.38. To SSIALYFGWLGSIR belongs 0.294 ± 0.85.

The substance ISSYTCCFYSYHQSHVMPLG returned an amyloid nucleation score of 5.848 ± 0.051.

For the substance INVFREAYIIYCRCEGSGGD, the amyloid nucleation score was 7.507 ± 0.059.

Consider LINFLLVTVCTSWIGISLCV, for which the amyloid nucleation score stood at 0.358 ± 0.39. To WIWYFLGRGGYVACRSTKVW belongs 0.016 ± 1.2. To MLLWVWMEFY belongs 0.991 ± 0.33; to MQNMNEVSIINVAERVVNGG, “inactive”; to IKRTCYPLVRGVPNQIRNLK, -0.091 ± 0.68. AFPSVRSAFSYLVVPCTICT had an amyloid nucleation score of 0.606 ± 0.53. In the case of WFFVDSVYIRNKFSLEKGSA, the amyloid nucleation score amounted to 7.494 ± 0.052. With EHRLR the figure was 0.477 ± 0.59; with LSQMSRCNPACAVVPASEMA, 0.376 ± 1.1. With SMGRLP the figure was -1.05 ± 1.5; with TVRFHYQGFTVS, -0.236 ± 0.61; with SIYIVNSLALVGMGLMSNYG, 2.81 ± 0.23.

KFSGWHLHGDLCRIHALEVW yielded an amyloid nucleation score of 0.457 ± 0.27.

As for KILVVGHRESIMCTDSYIMW, the amyloid nucleation score was -0.294 ± 0.59. WQLYIEYFE: the amyloid nucleation score was 0.128 ± 0.36. With RFLVFC the entry was “inactive”; with EVGMHNMACADSSVCMRSVL, 0.472 ± 0.6. To ALRAHHSL belongs 0.498 ± 0.56; to SPLSYAI, 1.36 ± 0.58; to TSAVQIVTLQLVLSWMRYHM, 1.02 ± 0.28. For the substance SIPRGFLLVLLVDNPTIRLQ, the amyloid nucleation score is -0.358 ± 0.32.

In the case of LDCAKTVVTGVVLGRQLCQN, the amyloid nucleation score amounted to 0.662 ± 0.39. MNRHGYHNIWWYTTSHGLYT: the amyloid nucleation score was -1.05 ± 2.7.

CLGAVIDSGNHSNSCYIRGD: the amyloid nucleation score is 2.07 ± 0.67. To QVVPC belongs -0.153 ± 0.66.

The substance THFVLE had an amyloid nucleation score of 0.53 ± 0.28. To LELDRFDNFRYGSAPRCYLP belongs “inactive”. To VYMSIRYRGSDNIRICVSVR belongs -0.13 ± 0.43; to SFLRGMASWLTQMHGKGWGW, 0.239 ± 0.69. For IFTFQLLFRNSQRSMYSSVL, the amyloid nucleation score turned out to be 0.651 ± 0.63.

Regarding HVNSFKLGNGSFHFWY, the amyloid nucleation score was 0.634 ± 0.38. With GSWATVWVVKDPEVADCCGL the figure was -1.53 ± 1.6; with GMDCH, -0.175 ± 0.25; with RSVCYIKNPVVAREFLVLSA, “inactive”. On to IVFVLQGRRQ, for which the amyloid nucleation score came out at 0.634 ± 0.88. Regarding QRLLTYPLLYVTSNVLRFYR, the amyloid nucleation score was -0.001 ± 0.7. For the substance VRLFV, the amyloid nucleation score is 2.14 ± 0.65. With AKKWNSSMAKCNFNCLKSVW, the amyloid nucleation score is -2.05 ± 2.7.

Regarding WLGYMDMDNGARQNQYSETG, the amyloid nucleation score is -0.942 ± 1.4. With SMGWYGYFLYLNCDDSFPYW the figure was 3.79 ± 0.069; with TTRAHEVDTYLYFHFGVGRT, 2.84 ± 0.17. With SRATVSFVSLGNLTFGTILC the figure was 1.72 ± 0.36; with YWRKLQYRMAGN, 0.265 ± 0.64; with AFQESRGQSNWYIYMLVHTS, 1.11 ± 0.54. To IENGLYMSLYLGNQRI belongs 1.47 ± 0.29; to REGWLITWRFNSW, “inactive”. Take QKPTMFGA: the amyloid nucleation score is -0.338 ± 0.28.

With NLSVY, the amyloid nucleation score is -0.232 ± 0.74. Regarding NMGTVMYGVIQACRAHVNVV, the amyloid nucleation score came out at 0.22 ± 0.45.

For the substance CQNFDDI, the amyloid nucleation score came to 0.117 ± 0.9.

As for ILGKFFIDLSDI, the amyloid nucleation score is -1.16 ± 0.43. With VRSYDRMFYRDPQDLL, the amyloid nucleation score is -0.077 ± 0.22.

The substance TGTPYLLHLNWNLGSGMSGT gave an amyloid nucleation score of 0.451 ± 0.2.
